Target: T1, Mcm10Δ150 (LexA fusion) (S. cerevisiae, UniProt P32354 151-571)
T1 construct: Mcm10, budding yeast, first 150 amino acids deleted; also called pBTM116-LEXA-mcm10Δ150; LexA-tagged Mcm10Δ150; source: yeast two-hybrid fusion (pBTM116); also overexpressed from the ADH1 promoter in yeast, in whole cell extract, for Co-IP
T1 sequence (looked up): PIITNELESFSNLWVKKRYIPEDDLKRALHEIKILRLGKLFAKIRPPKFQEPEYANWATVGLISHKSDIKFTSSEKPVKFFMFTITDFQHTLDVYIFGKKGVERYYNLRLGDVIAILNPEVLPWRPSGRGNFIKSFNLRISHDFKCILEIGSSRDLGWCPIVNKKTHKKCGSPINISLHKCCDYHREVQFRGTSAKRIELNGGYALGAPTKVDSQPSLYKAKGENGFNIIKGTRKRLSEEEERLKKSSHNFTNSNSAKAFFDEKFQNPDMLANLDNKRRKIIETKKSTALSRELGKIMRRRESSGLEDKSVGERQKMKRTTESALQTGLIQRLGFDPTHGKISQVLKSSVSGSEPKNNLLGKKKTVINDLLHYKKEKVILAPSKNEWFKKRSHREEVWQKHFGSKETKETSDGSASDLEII
Test: two-hybrid; yeast two-hybrid with pBTM116 (LexA) and pACT2 fusions; β-galactosidase activity in cell extracts, in triplicate from at least three clones
Details: partners not purified

reduction of binding relative to wild-type Mcm10: ~85%
B1: Mcm10 (LexA fusion, wild type) (natural protein, S. cerevisiae, UniProt P32354 1-571, looked up)
chain: MNDPREILAVDPYNNITSDEEDEQAIARELEFMERKRQALVERLKRKQEFKKPQDPNFEAIEVPQSPTKNRVKVGSHNATQQGTKFEGSNINEVRLSQLQQQPKPPASTTTYFMEKFQNAKKNEDKQIAKFESMMNARVHTFSTDEKKYVPIITNELESFSNLWVKKRYIPEDDLKRALHEIKILRLGKLFAKIRPPKFQEPEYANWATVGLISHKSDIKFTSSEKPVKFFMFTITDFQHTLDVYIFGKKGVERYYNLRLGDVIAILNPEVLPWRPSGRGNFIKSFNLRISHDFKCILEIGSSRDLGWCPIVNKKTHKKCGSPINISLHKCCDYHREVQFRGTSAKRIELNGGYALGAPTKVDSQPSLYKAKGENGFNIIKGTRKRLSEEEERLKKSSHNFTNSNSAKAFFDEKFQNPDMLANLDNKRRKIIETKKSTALSRELGKIMRRRESSGLEDKSVGERQKMKRTTESALQTGLIQRLGFDPTHGKISQVLKSSVSGSEPKNNLLGKKKTVINDLLHYKKEKVILAPSKNEWFKKRSHREEVWQKHFGSKETKETSDGSASDLEII
notes: Mcm10, budding yeast, called full-length in the Co-IP with LexA-tagged constructs; also called LexA-tagged Mcm10; full-length Mcm10; source: yeast two-hybrid fusion (pBTM116); also overexpressed in yeast, in whole cell extract, for Co-IP

From publication PMC4117747, “The N-terminus of Mcm10 is important for interaction with the 9-1-1 clamp and in resistance to DNA damage” (Nucleic Acids Research, 2014)
